From a protein production outcome set (Wang et al. 2014)

Assay: label from the status in PepcDB records

| Sequence | protein production |
| --- | --- |
| MSSILSDTAPRFLADYRPADFTINTVNLTIHLDDTCSQVVSELTIERKGDVQQALQLNGEHLTLVSLVLDNQALSKDQYQINETLLIIPASSLPDRSHFTLIITTEINPQENTALEGLFKSGDAFCTQCEAEGFRRISYYLDRPDVMATFTTKVIADKNLYPYLLSNGNKVASGELSDNKHFVTWHDPFPKPCYLFALVAGNFDLLEDNFTTASGREVALEIFVDEGNLAKAEHAMTSLQKSMAWDEETFGLEYDLDIYMIVAVDFFNMGAMENKGLNVFNSKYVLADSHCATDSDYFNIEAVIAHEYFHNWTGNRVTCRDWFQLSLKEGLTVFRDQQFSAQMHSSAVTRIQNVRVLRSQQFAEDAGPMAHPIRPEKVLEMNNFYTLTVYEKGSEVIRMLHTLIGVDKFRQGMDLYFSRFDGMAVTCDDFINAMSDASGKDLAQFKLWYSQSGTPVIKAQEMFDSQTNIYTLTLLQQSPITKNQQNPQALHIPIKVELISDNNNEASQSELLELTQTEQSWQFSGFTSKPTLAMLADFSAPVKLIFDQNNTSLLTIMQQADNSFCRWDAGQKLLMSYLHQLTFDIDYTIPNELINAINDMLNSGGDRAFIAEQLSLPSFDEAASLMVDIDPIALTNAITTLATFIARGTQQQLLVSYKACQHEDLKDNAVANRALKNVCLSYLSLLPEYQYLVTQQYQQATNNDDILKENMTDSLAALTCSSKNNLDDLNEQLEHFENKWQQTTLVMDKWFALNASVVSEDVFTQLANLLEHPQFSLKNPNRARSLIGAFAMNNPKYFHCPTGRGYQFLADQIAKLNEINPQVASRLITPLIQFKSFAPAHQKLMKAELVKLQALTNLSNDLKEKLDAALND | failed |
| MSSKDKKLSKPTSGRTGGIRTLSDLNRRSEPDSDSDSDGPQEYFTGGEKSGMLVQDPTKEPKHDDVDEIFNQARQLGAVEGPLEHPSSSRSFTGTGRLLSGESVPTALQQPEPVIHNIIFWSNGFTVDDGPLRKLDDPENASFLDSIRKSECPKELEPVDKRAPVHVNLMRRDEKCPEKEKLKVSFQGVGRTLGGASSSTASSQSNLTDVAAVQSPLQSLVVDETLPSTSIQLRLADGTRMVAKFNNHHTVNDIRGFIEFSRPGNPNNYTLQVMGFPPKPLTDPSQTIEQAGLASSVVIQKF | not failed |
| MSSLNLSPAAVSELVFSQTGLALISLLLTLFCYFAAKILYQRHRVWWLAPIVLAPVVITLLVFNLDIPLPTYFEYTHWLMAMLAPATIAFALPIYRERKLIRQYPLTIAFGVIAGLLLGMVSSWLLVKFVPLPVELSKSLLVRSVSTPFAMEATGAFGGVPELTAMMVLITGIIGMLVCEPLFKLMHIRTSLGKGVALGASAHGAGAAKASELGQQEGVIASLTMIFIGIAMVLGAPFFALIFS | failed |
| MSSQSIDDKFMSITQMKNLIHYVKKNDALSHLCIYILIITGSRFKPVQHLRYEDLNFKKSCIHLNDTKNKYSKRNVKVRIKDLEYIQSVINKHPINQNGYIFHNFINFISYSAINDVLVRFCLKYKYDKYTLKSLRHTHCSYLLAKGISIQYISKRLGHADIHTTLKIYSHLIKEFEDSENSLIEKNLNDLFSDLEHHHHHH | failed |
| MSSSGIEIAKPFVTATTNVLSTMAGIQPIPGQPYVKKNNVAKGDVSAVVGITGHKNGSISVTFTKQCAIAVVKAMLGDDIQDIIQDTKDAVGEVTNMISGQARAALSEMGMTFQGATPSVIMGDGHTISHVTKSPVIAIPFKTNHGEFTVEFCLE | not failed |
| MSSSLLSVLKEKSRSLKIRNKPVKMTSQERMIVHRCRFVDFTPATITSLAFSHKSNINKLTPSDLRLAIGRSNGNIEIWNPRNNWFQEMVIEGGKDRSIEGLCWSNVNGESLRLFSIGGSTVVTEWDLATGLPLRNYDCNSGVIWSISINDSQDKLSVGCDNGTVVLIDISGGPGVLEHDTILMRQEARVLTLAWKKDDFVIGGCSDGRIRIWSAQKNDENMGRLLHTMKVDKAKKESTLVWSVIYLPRTDQIASGDSTGSIKFWDFQFATLNQSFKAHDADVLCLTTDTDNNYVFSAGVDRKIFQFSQNTNKSQKNNRWVNSSNRLLHGNDIRAICAYQSKGADFLVSGGVEKTLVINSLTSFSNGNYRKMPTVEPYSKNVLVNKEQRLVVSWSESTVKIWTMGTDSSTEQNYKLVCKLTLKDDQNISTCSLSPDGQVLVVGRPSTTKVFHLQPVGNKLKVTKLDNDLLLRTSTKLVKFIDNSKIVICSCEDDVFIVDLESEEDEKPQEVELLEVTSTKSSIKVPYINRINHLEVDQNIAVISRGCGVVDILDLKARISKPLARLNNFITAVHINTSRKSVVVITADNKIYEFNMNLNSEAENEDSESVLTQWSKNNTDNLPKEWKTLKENCVGIFSDIENSSRLWFWGATWISRIDFDVDFPINKRRKQKKRTHEGLTITDESNFMNDEEDDEDDDIDMEISENLNVLLNQGNKIKSTDVQRNEESSGHFFFTDKYKPLLFVDLISSNELAIIERNPLTFHSKQKAFIQPKLVF | failed |
| MSSSQQIAKNARKAGNILKTISNEGRSDILYKIHDALKANAHAIEEANKIDLAVAKETGLADSLLKRLDLFKGDKFEVMLQGIKDVAELEDPVGKVKMARELDDGLTLYQVTAPVGVLLVIFESRPEVIANITALSIKSGNAAILKGGKESVNTFREMAKIVNDTIAQFQSETGVPVGSVQLIETRQDVSDLLDQDEYIDLVVPRGSNALVRKIKDTTKIPVLGHADGICSIYLDEDADLIKAKRISLDAKTNYPAGCNAMETLLINPKFSKWWEVLENLTLEGGVTIHATKDLKTAYFDKLNELGKLTEAIQCKTVDADEEQDFDKEFLSLDLAAKFVTSTESAIQHINTHSSRHTDAIVTENKANAEKFMKGVDSSGVYWNASTRFADGFRYGFGAEVGISTSKIHARGPVGLDGLVSYQYQIRGDGQVASDYLGAGGNKAFVHKDLDIKTVTLZ | not failed |
| MSSSSSVPAYLGDEDLTQETRALISSLPKEKGWLVSEIYEFQGLWHTQAILQGILICQKRFEAKDSDIILVTNPKSGTTWLKALVFALLNRHKFPVSSSGNHPLLVTNPHLLVPFLEGVYYESPDFDFSSLPSPRLMNTHISHLSLPESVKSSSCKIVYCCRNPKDMFVSLWHFGKKLAPEETADYPIEKAVEAFCEGKFIGGPFWDHILEYWYASRENPNKVLFVTYEELKKQTEVEMKRIAEFLECGFIEEEEVREIVKLCSFESLSNLEVNKEGKLPNGIETKTFFRKGEIGGWRDTLSESLAEEIDRTIEEKFKGSGLKFSS | not failed |
| MSSSTSQDFVSRPVIKKVFAKLQKEGDGAVVRRGISRSEQKLLDPFLMLDEFSVSPPAGFPDHPHRGITHQDFKGHKGTIYAGDVQWMTAGRGIIHSEMPEEEVNKEPNYQELSHSDIPKAEQNGVEVKVIAGESMGIQSPVYTRTPTMFLDFTLQPGAQIHQNVPESWNAFAYILESGEGGGVFSSSNSSPIPAHSVVVFGPGNDGVSVWNKSSSKQLRFVLIAGEPIGEPVVQYGPFVMNTQAEIDMTIEDYHYGKNGFEMAKYWRSQ | failed |
| MSSVPRFWRNLGSRYNLEGTRCKECGEYFYPPRNVCVNCRRMGELEPFKFKGTGEIVSYTLIHTGAEGFEGQAPYTLAIIKLDEGPRLTSQVVGNTDNIQIGTRVRSVFRKLGEDGERGMIYYGTKFVPVDALEHHHHHH | not failed |
| MSSVSEVNVDIKDFLMSINLEQYLLHFHESGFTTVKDCAAINDSLLQKIGISPTGHRRRILKQLQIILSKMQDIPIYA | not failed |
| MSTKDKYDILNLCFYEKEAIMANVLFLVGSLRDGSFNHQMAKKAEAFLTDKAQVSYIDLAKIPLFNQDIETPILPEIAELRAQVDAADAIWIFSPVYNYAIPGIVKNALDWLSRSLDLSNPKGPSILQDKITTVSAVANSGHDHLFKDFQHLLPFIRTQIAGEFTGSTINPEAWGTGVLELSDETLTKLEQQVADLLAAIQ | failed |
| MSTPDATSPGSQQQDVFDFLGRGAGDAPVVRIDTHGAAVFLEGNRAMKIKRAVKFPFLDYSTLAKRKIACEQELEVGHRFAPTIYRRVVPITRTDKGALQIGGEGPAVEWAVEMMRFDDSATLDHLARAGSLGPGLIDAVADAIAASHQAAPLAATAPWGASIEPILADDTNELAAGGFAAADVAALDNGSRNALGRLRPLLEQRGVAGFVRWCHGDLHLANIVVIDGKPTLFDAIEFDPALASVDVLYDLAFPLMDLLHYGRGSDSAQLLNRYLAVTNADNLDALSALPLLLSMRAAIRAKVMLARPAADETIRRANRAIAESYFELALRLIAPPPPRLIAVGGLSGTGKSVLARALSGNVPPLPGAVVLRSDVARKRLHGVADTERLPATAYTTEVTEAVYRGLVERAAHILKQGHSVIVDAVFSKPEERDAIESVAAGLGISFHGLFLTADLATRVARVAGRTADASDATPEIVRQQQSYAQGVIGWTSIDAGGTPAETLSRAVAALPQTAQVCSTLEHHHHHH | not failed |
| MSTPDNRSVNFFSLFRRGQHYAKTWPMEKRLAPVFVENRVIRMTRYAIRFMPPVAVFTLCWQIALGGQLGPAVATALFALSLPMQGLWWLGKRSVTPLPPSILNWFYEVRGKLQEAGQALAPVEGKPDYQALADTLKRAFKQLDKTFLDDL | not failed |
| MSTPRPSLTLTLLQAREAAMSFFRPSLNQHGLTEQQWRVIRILRQQGEMESYQLANQACILRPSMTGVLARLERDGIVRRWKAPKDQRRVYVNLTEKGQQCFVSMSGDMEKNYQRIQERFGEEKLAQLLELLNELKKIKP | not failed |
| MSTRRSAFLRGLWAATPFSLVIAPFGLLFGVVGTEAGLDIVEVMGFSIIVIAGAAQFAAVQMMADHAPTLIILATSLAVNLRMAMYSASLTPHLGPAPAGLRALIAYCLVDQTYTASMIEFDRAPQQSLGEKIAFFFGTVLPVCPLWYGSTYVGARLGTKIPPEFALDFAVPITFLAMIAPLLRTPAHIAAAGVSVALSLVLAFMPYNSGLLVAAVAAMVTGAQVEAWTERRRAA | failed |
| MSTSMPTALAGGRYQLGQLIGRGGMAEVHVALDTRLGRTVAVKIMRADLANDDIFLARFRREAHAVAQMNNPNIVNIYDSGEELVSSESGDTERLPYIVMEYVKGQTLRDIIKVNGALSQRDCEQVLLGVLNALDYSHRMGIIHRDIKPGNIMISEQGVVKVMDFGIARALDDSAATMTQSQGVVGTAQYLSPEQARGETVDMRSDLYSAGCVLYEMLTGRPPFTGDSAVAIAYQHVSEVATPPSAVVPGLPKMWDSICAKAMAKDRQNRYATASEFKTDILTYMNGGVPVAAAFNPLTDLSNMKARKEAERDLPTTPVEPQQQPTQAFNPVTGQFEQIPPANGANSAALQSRAQQRAAAAKAKKRKKIIIGSVIAVLAVALVGAGVVFAMSGAPNKSAEDKVTIPEVCNASTSKDNIKLKLETLGLTMVGKQDTDSTEPEGTCTKMSPEAGAKVAKGSKVKVWFSAGPQSTQVPDVKERSQEEARSILESAGFKVNATVRTEDSADIAKDMVTKTDPAAGQSVPKGTTITIYVSSGMTTVPSNLVGQSKDSVLQQYEGRFSFTVEQESSDTVEAGLITRVSPDSGSSIAQGGSITIWVSTGKEKVAVPNIAAGTKYATAELMLKAVGLKAQANGPADPTAVVVGIDPGAGAQVDVGSTVTITTKAAVTGDNNGNGNGNAGGSSSTGGTGPGGDK | failed |
